The Immune Epitope Database (IEDB)
One block for each sequence: values may come before it.

Assays:
[1] = biological target: HLA-B*08:02; test: IEDB peptide-MHC binding, purified MHC/direct/fluorescence; filed as Kd, often an IC50 or EC50 that approximates it; ≥ and ≤ were set here for values at or beyond the usual limits of such assays
[2] = biological target: HLA-A*26:01; test: IEDB peptide-MHC binding, purified MHC/competitive/radioactivity; filed as Kd, often an IC50 or EC50 that approximates it; ≥ and ≤ were set here for values at or beyond the usual limits of such assays; conditions: source organism: Dengue virus 3 Martinique/1243/1999
[3] = biological target: HLA-C*06:02; test: IEDB peptide-MHC binding, purified MHC/direct/fluorescence; filed as Kd, often an IC50 or EC50 that approximates it; ≥ and ≤ were set here for values at or beyond the usual limits of such assays; conditions: source organism: Burkholderia mallei ATCC 23344
[4] = biological target: HLA-A*02:01; test: IEDB peptide-MHC binding, purified MHC/competitive/fluorescence; filed as Kd, often an IC50 or EC50 that approximates it; ≥ and ≤ were set here for values at or beyond the usual limits of such assays
[5] = biological target: HLA-A*02:06; test: IEDB peptide-MHC binding, purified MHC/competitive/radioactivity; filed as Kd, often an IC50 or EC50 that approximates it; ≥ and ≤ were set here for values at or beyond the usual limits of such assays
[6] = biological target: HLA-A*02:17; test: as above
[7] = biological target: HLA-A*02:03; test: as above
[8] = biological target: HLA-B*07:02; test: IEDB peptide-MHC binding, purified MHC/competitive/fluorescence; ≥ and ≤ were set here for values at or beyond the usual limits of such assays
[9] = biological target: HLA-A*02:01; test: as above; conditions: source organism: Zaire ebolavirus
[10] = biological target: HLA-A*24:02; test: as above
[11] = biological target: HLA-B*15:01; test: as above; conditions: source organism: Vaccinia virus Copenhagen
[12] = biological target: HLA-A*03:01; test: IEDB peptide-MHC binding, purified MHC/competitive/fluorescence; filed as Kd, often an IC50 or EC50 that approximates it; ≥ and ≤ were set here for values at or beyond the usual limits of such assays; conditions: source organism: Yersinia pestis Nepal516
[13] = biological target: HLA-B*58:01; test: as above; conditions: source organism: Yersinia pestis Nepal516
[14] = biological target: HLA-A*26:01; test: as above
[15] = biological target: HLA-A*01:01; test: as above; conditions: source organism: Yersinia pestis Nepal516
[16] = biological target: HLA-A*32:01; test: IEDB peptide-MHC binding, purified MHC/competitive/radioactivity; filed as Kd, often an IC50 or EC50 that approximates it; ≥ and ≤ were set here for values at or beyond the usual limits of such assays; conditions: source organism: Dengue virus 3 Singapore/8120/1995
[17] = biological target: HLA-A*02:01; test: as above
[18] = biological target: HLA-B*15:01; test: IEDB peptide-MHC binding, purified MHC/competitive/fluorescence; filed as Kd, often an IC50 or EC50 that approximates it; ≥ and ≤ were set here for values at or beyond the usual limits of such assays; conditions: source organism: Yersinia pestis Nepal516
[19] = biological target: HLA-A*03:01; test: IEDB peptide-MHC binding, purified MHC/direct/fluorescence; filed as Kd, often an IC50 or EC50 that approximates it; ≥ and ≤ were set here for values at or beyond the usual limits of such assays; conditions: source organism: Lechiguanas virus
[20] = biological target: HLA-A*02:12; test: as above; conditions: source organism: Lechiguanas virus
[21] = biological target: HLA-A*24:03; test: as above; conditions: source organism: Lechiguanas virus
[22] = biological target: HLA-A*68:02; test: as above; conditions: source organism: Lechiguanas virus
[23] = biological target: HLA-A*02:19; test: as above; conditions: source organism: Lechiguanas virus
[24] = biological target: HLA-A*23:01; test: as above; conditions: source organism: Lechiguanas virus
[25] = biological target: HLA-A*02:03; test: as above; conditions: source organism: Lechiguanas virus
[26] = biological target: HLA-A*01:01; test: as above; conditions: source organism: Neembucu hantavirus
[27] = biological target: HLA-B*57:01; test: IEDB peptide-MHC binding, purified MHC/competitive/fluorescence; filed as Kd, often an IC50 or EC50 that approximates it; ≥ and ≤ were set here for values at or beyond the usual limits of such assays; conditions: source organism: Neembucu hantavirus
[28] = biological target: HLA-B*51:01; test: as above; conditions: source organism: Neembucu hantavirus
[29] = biological target: HLA-B*27:03; test: as above; conditions: source organism: Neembucu hantavirus
[30] = biological target: HLA-B*39:01; test: as above; conditions: source organism: Neembucu hantavirus
[31] = biological target: HLA-B*15:17; test: as above; conditions: source organism: Neembucu hantavirus
[32] = biological target: HLA-B*46:01; test: as above; conditions: source organism: Neembucu hantavirus
[33] = biological target: HLA-B*18:01; test: as above; conditions: source organism: Neembucu hantavirus
[34] = biological target: HLA-B*08:01; test: IEDB peptide-MHC binding, purified MHC/competitive/radioactivity; filed as Kd, often an IC50 or EC50 that approximates it; ≥ and ≤ were set here for values at or beyond the usual limits of such assays
[35] = biological target: HLA-A*11:01; test: IEDB peptide-MHC binding, purified MHC/competitive/fluorescence; filed as Kd, often an IC50 or EC50 that approximates it; ≥ and ≤ were set here for values at or beyond the usual limits of such assays
[36] = biological target: HLA-A*03:01; test: IEDB peptide-MHC binding, purified MHC/competitive/fluorescence; ≥ and ≤ were set here for values at or beyond the usual limits of such assays; conditions: source organism: Zaire ebolavirus
[37] = biological target: HLA-A*11:01; test: as above; conditions: source organism: Zaire ebolavirus
[38] = biological target: HLA-B*15:01; test: IEDB peptide-MHC binding, purified MHC/competitive/radioactivity; filed as Kd, often an IC50 or EC50 that approximates it; ≥ and ≤ were set here for values at or beyond the usual limits of such assays; conditions: source organism: Dengue virus 3 Martinique/1243/1999
[39] = source organism: Burkholderia mallei ATCC 23344
[40] = source organism: Dengue virus 3 Martinique/1243/1999
[41] = source organism: Dengue virus 3 China/80-2/1980
[42] = source organism: Zaire ebolavirus
[43] = source organism: Vaccinia virus Copenhagen
[44] = source organism: Dengue virus 1 Singapore/S275/1990
[45] = source organism: Neembucu hantavirus
[46] = source organism: Dengue virus 2 16681-PDK53
[47] = source organism: Dengue virus 2 Thailand/NGS-C/1944
[48] = source organism: Dengue virus 4 Philippines/H241/1956
[49] = source organism: Giardia lamblia ATCC 50803
[50] = source organism: Dengue virus 2 Jamaica/1409/1983

Sequence: ELKGMSYAM
Kd ([1]; source organism: dengue virus type 3): ≥ 20000 nM
Kd [2]: 1740 nM

Sequence: RLRRRRHPL
Kd [1, 39]: 1190 nM
Kd [3]: ≥ 20000 nM
Kd [4, 39]: ≥ 20000 nM

Sequence: RLITANPVV
Kd [5, 40]: 65.1 nM
Kd [6, 41]: 520 nM
Kd [7, 40]: 36.3 nM

Sequence: GPAAEGIYI
IC50 [8, 42]: 60400 nM

Sequence: TELRTFSIL
IC50 [9]: ≥ 395000 nM
IC50 [8, 42]: 50300 nM
IC50 [10, 42]: 8430 nM

Sequence: RIPNSLHSL
IC50 [11]: 22700 nM
IC50 [8, 43]: 37200 nM
IC50 [10, 43]: 656 nM

Sequence: RTLDTLALY
Kd [12]: 132 nM
Kd [13]: 8.4 nM
Kd ([14]; source organism: Yersinia pestis Nepal516): 4500 nM
Kd [15]: 1210 nM

Sequence: VLFTFVLLL
Kd [6, 41]: 568 nM
Kd [16]: 494 nM

Sequence: LLFKTSVGV
Kd [17, 44]: 3.22 nM
Kd [6, 44]: 90.3 nM
Kd [7, 44]: 9.08 nM

Sequence: KTAVVVTRY
Kd [12]: 676 nM
Kd [18]: 674 nM
Kd [13]: 36.2 nM
Kd [15]: 455 nM

Sequence: ETESATLFT
Kd [19]: ≥ 20000 nM
Kd [20]: ≥ 20000 nM
Kd [21]: ≥ 20000 nM
Kd [22]: ≥ 20000 nM
Kd [23]: ≥ 20000 nM
Kd [24]: ≥ 20000 nM
Kd [25]: ≥ 20000 nM
Kd [26]: 592 nM
Kd [27]: ≥ 20000 nM
Kd [4, 45]: ≥ 20000 nM
Kd [28]: ≥ 20000 nM
Kd [29]: ≥ 20000 nM
Kd [14, 45]: ≥ 20000 nM
Kd [30]: ≥ 20000 nM
Kd [31]: ≥ 20000 nM
Kd [32]: ≥ 20000 nM
Kd [33]: ≥ 20000 nM

Sequence: LLLGLMILLT
Kd [17, 41]: 1660 nM
Kd [6, 41]: 697 nM

Sequence: LQMENKAWLV
Kd [5, 46]: 1.17 nM
Kd [17, 47]: 10.1 nM
Kd [6, 47]: 142 nM
Kd [34, 46]: 6750 nM

Sequence: RMVLAFITFL
Kd [17, 48]: 3.25 nM
Kd [6, 48]: 1.76 nM

Kd ([35]; source organism: Homo sapiens): 554 nM
Sequence: SSSPQPKKK

Sequence: YARLRKEVL
Kd [1, 49]: 350 nM
Kd [4, 49]: ≥ 20000 nM

Sequence: TLGMCCIITA
Kd [17, 50]: 67.4 nM
Kd [6, 50]: 16900 nM

Sequence: DLKRKFYTL
Kd ([1]; source organism: Campylobacter jejuni subsp. jejuni 81116): 154 nM

Sequence: KTYFEKVERLK
Kd ([35]; source organism: Influenza A virus (A/swine/Scotland/410440/94(H1N2))): 28.7 nM

Sequence: GIRGFPRCR
IC50 [36]: 1060 nM
IC50 [8, 42]: ≥ 451000 nM
IC50 [37]: 42100 nM

Sequence: YQLWTALISL
Kd [5, 40]: 1.75 nM
Kd [17, 40]: 18.8 nM
Kd [38]: 5.62 nM
Kd [6, 40]: 104 nM
Kd [34, 40]: 1320 nM

Sequence: AIYGAAFSGV
Kd [5, 50]: 4.57 nM
Kd [17, 50]: 1.05 nM
Kd [6, 50]: 627 nM
Kd [7, 50]: 8.6 nM

Sequence: LPAAPDGIR
IC50 [8, 42]: 54700 nM
